# Assay results published in US20210115421.
# Columns and labels:
# Assay in all cases: cell_activity
# [1] = test system: dLbCas12a-K538W-K595Y K538W,K595Y (Lachnospiraceae bacterium ND2006)
# [2] = test system: dLbCas12a-T152R-K538W T152R,K538W (Lachnospiraceae bacterium ND2006); conditions: PAM TTTC; printed column identical to K538W+K595Y column
# [3] = test system: wt dLbCas12a (catalytically inactive LbCas12a) (Lachnospiraceae bacterium ND2006); conditions: PAM-SCANR in E. coli, cutoff 1.67
# [4] = test system: dLbCas12a-T152R-K538W-K595Y T152R,K538W,K595Y (Lachnospiraceae bacterium ND2006); conditions: PAM-SCANR in E. coli
# [5] = test system: dLbCas12a-K595Y K595Y (Lachnospiraceae bacterium ND2006)
# [6] = test system: dLbCas12a-T152R T152R (Lachnospiraceae bacterium ND2006); conditions: PAM TTTG; PAM-SCANR in E. coli, cutoff 1.67
# [7] = test system: dLbCas12a-K538W K538W (Lachnospiraceae bacterium ND2006)
# [8] = test system: dLbCas12a-G532R-K595R (RR) G532R,K595R (Lachnospiraceae bacterium ND2006); conditions: PAM-SCANR in E. coli
# [9] = PAM CCCC, not recognized by single mutant
substance,measurement,setting,value
"crRNA targeting lacI promoter ; lacI promoter reporter, TTTC PAM",binding signal (normalized score),"[1]; PAM TTTC, printed column identical to T152R+K538W column",12
same,binding signal (normalized score),[2],12
same,binding signal (normalized score),[3]; PAM TTTC,2.96
"crRNA targeting lacI promoter ; lacI promoter reporter, TGGC PAM",binding signal (normalized score),[4]; PAM TGGC,10.3
"crRNA targeting lacI promoter ; lacI promoter reporter, TCGC PAM",binding signal (normalized score),"[5]; PAM TCGC, PAM-SCANR in E. coli, cutoff 1.67",3.23
"crRNA targeting lacI promoter ; lacI promoter reporter, TTTG PAM",binding signal (normalized score),[6],2.94
"crRNA targeting lacI promoter ; lacI promoter reporter, AGCC PAM",binding signal (normalized score),[4]; PAM AGCC,13.7
"crRNA targeting lacI promoter ; lacI promoter reporter, TTTA PAM",binding signal (normalized score),"[7]; PAM TTTA, PAM-SCANR in E. coli, cutoff 1.67, a second K538W column gives 11.18",4.71
same,binding signal (normalized score),"[5]; PAM TTTA, TTTV lost in K595Y",< 1.67
"crRNA targeting lacI promoter ; lacI promoter reporter, CCCC PAM",binding signal (normalized score),[8]; PAM CCCC,3.87
same,binding signal (normalized score),[7]; [9],< 1.67
same,binding signal (normalized score),"[1]; PAM CCCC, PAM-SCANR in E. coli",2.95
same,binding signal (normalized score),[5]; [9],< 1.67
"crRNA targeting lacI promoter ; lacI promoter reporter, TTCG PAM",binding signal (normalized score),[8]; PAM TTCG,4.81
"crRNA targeting lacI promoter ; lacI promoter reporter, CCGC PAM",binding signal (normalized score),[3]; PAM CCGC,2.23
